Laboratory results reported in patent publication US20200087416A1 (Innovent, published 2020).
Positions count from the first letter of the chain named.

Experiments:
[1] = target: T1, human PCSK9 (PCSK9 antigen, SEQ ID NO. 53) (human, UniProt A8T644 31-152; Q8NBP7 153-692, Biotin-labelled on amines in the MSD-SET and sorting experiments; positions not given.); test: cell-based or functional assay
[2] = target: T2, murine PCSK-9 (murine, UniProt Q80W65 35-694); test: BLI (ForteBio), IgG on AHQ sensor, 100 nM antigen
T2 construct: also called mouse PCSK9

[3] = target: T1, human PCSK9 (PCSK9 antigen, SEQ ID NO. …); test: BLI (ForteBio), IgG on AHQ sensor, 100 nM antigen
[4] = target: T2, murine PCSK-9; test: MSD-SET, Fab with biotin-PCSK9 in solution, IgG on plate, pH 7.4
[5] = target: T1, human PCSK9 (PCSK9 antigen, SEQ ID NO. …); test: as above
[6] = target: T1, human PCSK9 (PCSK9 antigen, SEQ ID NO. …); test: MSD-SET, Fab with biotin-PCSK9 in solution, IgG on plate, pH 6.0
[7] = target: T1, human PCSK9 (PCSK9 antigen, SEQ ID NO. …); test: flow cytometry, PCSK9 left on CHO-LDLR cells (anti-His-FITC) after premix with 0.1 nM antibody
[8] = target: T1, human PCSK9 (PCSK9 antigen, SEQ ID NO. …); test: flow cytometry, PCSK9 left on CHO-LDLR cells (anti-His-FITC) after premix with 100 nM antibody
[9] = target: T1, human PCSK9 (PCSK9 antigen, SEQ ID NO. …); test: flow cytometry, PCSK9 left on CHO-LDLR cells (anti-His-FITC) after premix with 1000 nM antibody
[10] = target: T1, human PCSK9 (PCSK9 antigen, SEQ ID NO. …); test: flow cytometry, PCSK9 left on CHO-LDLR cells (anti-His-FITC) after premix with 1 nM antibody
[11] = target: T1, human PCSK9 (PCSK9 antigen, SEQ ID NO. …); test: flow cytometry, PCSK9 left on CHO-LDLR cells (anti-His-FITC) after premix with 10 nM antibody
For BODIPY-LDL uptake by HepG2 cells, fluorescence, 16.8 nM, replicate 1 in this document: unit not given here.
For BODIPY-LDL uptake by HepG2 cells, fluorescence, 16.8 nM, replicate 2 in this document: unit not given here.
For BODIPY-LDL uptake by HepG2 cells, fluorescence, 4.2 nM, replicate 1 in this document: unit not given here.
For BODIPY-LDL uptake by HepG2 cells, fluorescence, 4.2 nM, replicate 2 in this document: unit not given here.
For BODIPY-LDL uptake by HepG2 cells, fluorescence, 66.7 nM, replicate 1 in this document: unit not given here.
For BODIPY-LDL uptake by HepG2 cells, fluorescence, 66.7 nM, replicate 2 in this document: unit not given here.

B1: ADI-02396 (antibody, human IgG2, kappa, V domains shown)
VH: QLQLQESGPGLVKPSETLSLTCTVSGGSISSSSYYWGWIRQPPGKGLEWIGSIYYSGSTYYNPSLKSRVTISVDTSKNQFSLKLSSVTAADTAVYYCAREGSGVVPAAGPNWFDPWGQGTLVTVSS
VL: EIVLTQSPATLSLSPGERATLSCRASQSVSSYLAWYQQKPGQAPRLLIYDASNRATGIPARFSGSGSGTDFTLTISSLEPEDFAVYYCQQRRNWFTFGGGTKVEIKR
notes: IgG; also called parent antibody
BODIPY-LDL uptake by HepG2 cells, fluorescence, 4.2 nM, replicate 1 [1]: 0.366
BODIPY-LDL uptake by HepG2 cells, fluorescence, 4.2 nM, replicate 2 [1]: 0.352
BODIPY-LDL uptake by HepG2 cells, fluorescence, 16.8 nM, replicate 1 [1]: 0.404
BODIPY-LDL uptake by HepG2 cells, fluorescence, 16.8 nM, replicate 2 [1]: 0.341
BODIPY-LDL uptake by HepG2 cells, fluorescence, 66.7 nM, replicate 1 [1]: 0.432
BODIPY-LDL uptake by HepG2 cells, fluorescence, 66.7 nM, replicate 2 [1]: 0.401
Kd [2]: 78.3 nM
Kd [3]: 9.5 nM

B2: ADI-10088 Fab (Fab, V domains shown)
VH: B1 VH with S30G, G37A, Y54N, S56R, G101N
VL: B1 VL
Kd [4]: 0.087 nM
Kd [5]: 0.01 nM
Kd [6]: 0.016 nM

B3: ADI-10090 Fab (Fab, V domains shown)
VH: B1 VH with S30W, G37T, Y54N, S56R, G101N
VL: B1 VL
Kd [4]: 0.12 nM
Kd [5]: 0.017 nM
Kd [6]: 0.021 nM

B4: ADI-10090 (antibody, human IgG2, kappa, V domains shown)
VH: B1 VH with S30W, G37T, Y54N, S56R, G101N
VL: B1 VL
notes: IgG
Fluorescence Signal Value [7]: 6810
Fluorescence Signal Value [8]: 4810
Fluorescence Signal Value [9]: 4820
Fluorescence Signal Value [10]: 6750
Kd [2]: 0.674 nM
Kd [3]: 0.352 nM
Fluorescence Signal Value [11]: 5810

B5: ADI-10087 Fab (Fab, V domains shown)
VH: B1 VH with S32A, G37S, Y54N, S56R, G101N, D114G
VL: B1 VL
Kd [4]: 0.041 nM
Kd [5]: 0.005 nM
Kd [6]: 0.0098 nM

B6: ADI-09113 Fab (Fab, V domains shown)
VH: B1 VH with I29V, I53A, G101N
VL: B1 VL
Kd [4]: 0.76 nM
Kd [5]: 0.17 nM
Kd [6]: 0.65 nM

B7: ADI-10086 Fab (Fab, V domains shown)
VH: B1 VH with S30R, S33A, Y54N, S56R, G101N, D114G
VL: B1 VL
Kd [4]: 0.06 nM
Kd [5]: 0.0086 nM
Kd [6]: 0.013 nM

B8: ADI-09111 Fab (Fab, V domains shown)
VH: B1 VH with G101N
VL: B1 VL
Kd [4]: 3.5 nM
Kd [5]: 0.7 nM
Kd [6]: 1.9 nM

B9: ADI-10089 Fab (Fab, V domains shown)
VH: B1 VH with S30G, G37T, Y54N, S56R, G101N
VL: B1 VL
Kd [4]: 0.07 nM
Kd [5]: 0.011 nM
Kd [6]: 0.01 nM

B10: ADI-09112 Fab (Fab, V domains shown)
VH: B1 VH with S64F, G101N, D114G
VL: B1 VL
Kd [4]: 1.2 nM
Kd [5]: 0.22 nM

B11: ADI-10086 (antibody, human IgG2, kappa, V domains shown)
VH: B1 VH with S30R, S33A, Y54N, S56R, G101N, D114G
VL: B1 VL
notes: IgG
Fluorescence Signal Value [7]: 6600
Fluorescence Signal Value [8]: 5130
Fluorescence Signal Value [9]: 5270
Fluorescence Signal Value [10]: 6920
Kd [2]: 0.607 nM
Kd [3]: 0.336 nM
Fluorescence Signal Value [11]: 5830

B12: Lodelcizumab (antibody, V domains shown)
VH: QVQLVQSGAEVKKPGASVKVSCKASGYTFSTMYMSWVRQAPGQGLEWMGRIDPANEHTNYAQKFQGRVTMTRDTSISTAYMELSRLTSDDTAVYYCARSYYYYNMDYWGQGTLVTVSS
VL: QIVLTQSPATLSVSPGERATLSCRASQSVSYMHWYQQKPGQAPRLLIYGVFRRATGIPDRFSGSGSGTDFTLTIGRLEPEDFAVYYCLQWSSDPPTFGQGTKLEIK
Fluorescence Signal Value [7]: 8400
Fluorescence Signal Value [8]: 8760
BODIPY-LDL uptake by HepG2 cells, fluorescence, 4.2 nM, replicate 1 [1]: 0.318
BODIPY-LDL uptake by HepG2 cells, fluorescence, 4.2 nM, replicate 2 [1]: 0.352
BODIPY-LDL uptake by HepG2 cells, fluorescence, 16.8 nM, replicate 1 [1]: 0.317
BODIPY-LDL uptake by HepG2 cells, fluorescence, 16.8 nM, replicate 2 [1]: 0.314
BODIPY-LDL uptake by HepG2 cells, fluorescence, 66.7 nM, replicate 1 [1]: 0.33
BODIPY-LDL uptake by HepG2 cells, fluorescence, 66.7 nM, replicate 2 [1]: 0.312
Fluorescence Signal Value [9]: 7330
Fluorescence Signal Value [10]: 8760
Kd [3]: 1.51 nM
Fluorescence Signal Value [11]: 7330

B13: Bococizumab (antibody, V domains shown)
VH: QVQLVQSGAEVKKPGASVKVSCKASGYTFTSYYMHWVRQAPGQGLEWMGEISPFGGRTNYNEKFKSRVTMTRDTSTSTVYMELSSLRSEDTAVYYCARERPLYASDLWGQGTTVTVSS
VL: DIQMTQSPSSLSASVGDRVTITCRASQGISSALAWYQQKPGKAPKLLIYSASYRYTGVPSRFSGSGSGTDFTFTISSLQPEDIATYYCQQRYSLWRTFGQGTKLEIK
Fluorescence Signal Value [7]: 7100
Fluorescence Signal Value [8]: 5310
Fluorescence Signal Value [9]: 6040
Fluorescence Signal Value [10]: 6960
Kd [2]: 0.663 nM
Kd [3]: 0.386 nM
Fluorescence Signal Value [11]: 6270

B14: Evolocumab (antibody, V domains shown)
VH: QVQLVQSGAEVKKPGASVKVSCKASGYTLTSYGISWVRQAPGQGLEWMGWVSFYNGNTNYAQKLQGRGTMTTDPSTSTAYMELRSLRSDDTAVYYCARGYGMDVWGQGTTVTVSS
VL: QSALTQPASVSGSPGQSITISCTGTSSDVGGYNSVSWYQQHPGKAPKLMIYEVSNRPSGVSNRFSGSKSGNTASLTISGLQAEDEADYYCNSYTSTSMVFGGGTKLTVL
Fluorescence Signal Value [7]: 6990
Fluorescence Signal Value [8]: 5100
BODIPY-LDL uptake by HepG2 cells, fluorescence, 4.2 nM, replicate 1 [1]: 0.351
BODIPY-LDL uptake by HepG2 cells, fluorescence, 4.2 nM, replicate 2 [1]: 0.36
BODIPY-LDL uptake by HepG2 cells, fluorescence, 16.8 nM, replicate 1 [1]: 0.355
BODIPY-LDL uptake by HepG2 cells, fluorescence, 16.8 nM, replicate 2 [1]: 0.363
BODIPY-LDL uptake by HepG2 cells, fluorescence, 66.7 nM, replicate 1 [1]: 0.724
BODIPY-LDL uptake by HepG2 cells, fluorescence, 66.7 nM, replicate 2 [1]: 0.778
Fluorescence Signal Value [9]: 4800
Fluorescence Signal Value [10]: 6810
Kd [2]: 114 nM
Kd [3]: 1.03 nM
Fluorescence Signal Value [11]: 5780

B15: Alirocumab (antibody, V domains shown)
VH: EVQLVESGGGLVQPGGSLRLSCAASGFTFNNYAMNWVRQAPGKGLDWVSTISGSGGTTNYADSVKGRFIISRDSSKHTLYLQMNSLRAEDTAVYYCAKDSNWGNFDLWGRGTLVTVSS
VL: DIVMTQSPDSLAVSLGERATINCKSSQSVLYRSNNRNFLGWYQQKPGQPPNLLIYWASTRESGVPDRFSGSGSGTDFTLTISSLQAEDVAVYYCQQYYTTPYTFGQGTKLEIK
Fluorescence Signal Value [7]: 7170
Fluorescence Signal Value [8]: 4950
BODIPY-LDL uptake by HepG2 cells, fluorescence, 4.2 nM, replicate 1 [1]: 0.364
BODIPY-LDL uptake by HepG2 cells, fluorescence, 4.2 nM, replicate 2 [1]: 0.37
BODIPY-LDL uptake by HepG2 cells, fluorescence, 16.8 nM, replicate 1 [1]: 0.396
BODIPY-LDL uptake by HepG2 cells, fluorescence, 16.8 nM, replicate 2 [1]: 0.392
BODIPY-LDL uptake by HepG2 cells, fluorescence, 66.7 nM, replicate 1 [1]: 0.686
BODIPY-LDL uptake by HepG2 cells, fluorescence, 66.7 nM, replicate 2 [1]: 0.716
Fluorescence Signal Value [9]: 4930
Fluorescence Signal Value [10]: 6980
Kd [2]: 2.66 nM
Kd [3]: 0.0301 nM
Fluorescence Signal Value [11]: 5750
